According to US20190002564A1 (Hoffmann-La Roche, published 2019):

Assays:
cynomolgus MCSP D3 = target: T1, cynomolgus MCSP D3 (cynomolgus, UniProt Q6UVK1 1582-2224 (human entry), limits assumed); test: SPR ProteOn XPR36; parental M4-3/ML2 IgG KD against variant IgG KD
T1 construct: Recombinant, captured through anti-Penta His in the avidity set-up; also called Cyno MCSP; cynomolgus homologue
T1 chain: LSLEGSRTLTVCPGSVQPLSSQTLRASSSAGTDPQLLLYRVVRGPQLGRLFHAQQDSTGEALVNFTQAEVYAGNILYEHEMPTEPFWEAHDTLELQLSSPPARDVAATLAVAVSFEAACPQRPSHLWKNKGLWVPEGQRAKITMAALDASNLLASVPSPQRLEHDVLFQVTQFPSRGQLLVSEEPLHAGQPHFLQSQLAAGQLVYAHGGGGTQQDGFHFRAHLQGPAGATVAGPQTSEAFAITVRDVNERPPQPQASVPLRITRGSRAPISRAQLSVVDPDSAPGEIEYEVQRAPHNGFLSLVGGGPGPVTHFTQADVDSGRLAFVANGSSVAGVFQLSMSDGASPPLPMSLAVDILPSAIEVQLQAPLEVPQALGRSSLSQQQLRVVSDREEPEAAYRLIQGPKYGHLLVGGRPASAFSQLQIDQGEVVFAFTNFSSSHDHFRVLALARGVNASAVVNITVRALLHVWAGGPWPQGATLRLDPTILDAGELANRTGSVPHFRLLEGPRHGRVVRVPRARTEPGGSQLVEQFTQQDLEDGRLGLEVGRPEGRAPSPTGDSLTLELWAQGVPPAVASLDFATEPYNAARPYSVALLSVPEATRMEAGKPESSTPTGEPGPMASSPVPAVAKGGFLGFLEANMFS

[1] = target: T2, human MCSP(D3 domain)-avi-his (human, UniProt Q6UVK1 1582-2224); test: as above
T2 construct: Recombinant D3 domain of MCSP (CSPG4) with avi and his tags; also called hu-MCSP(D3 domain)-avi-his; human MCSP antigen
T2 sequence: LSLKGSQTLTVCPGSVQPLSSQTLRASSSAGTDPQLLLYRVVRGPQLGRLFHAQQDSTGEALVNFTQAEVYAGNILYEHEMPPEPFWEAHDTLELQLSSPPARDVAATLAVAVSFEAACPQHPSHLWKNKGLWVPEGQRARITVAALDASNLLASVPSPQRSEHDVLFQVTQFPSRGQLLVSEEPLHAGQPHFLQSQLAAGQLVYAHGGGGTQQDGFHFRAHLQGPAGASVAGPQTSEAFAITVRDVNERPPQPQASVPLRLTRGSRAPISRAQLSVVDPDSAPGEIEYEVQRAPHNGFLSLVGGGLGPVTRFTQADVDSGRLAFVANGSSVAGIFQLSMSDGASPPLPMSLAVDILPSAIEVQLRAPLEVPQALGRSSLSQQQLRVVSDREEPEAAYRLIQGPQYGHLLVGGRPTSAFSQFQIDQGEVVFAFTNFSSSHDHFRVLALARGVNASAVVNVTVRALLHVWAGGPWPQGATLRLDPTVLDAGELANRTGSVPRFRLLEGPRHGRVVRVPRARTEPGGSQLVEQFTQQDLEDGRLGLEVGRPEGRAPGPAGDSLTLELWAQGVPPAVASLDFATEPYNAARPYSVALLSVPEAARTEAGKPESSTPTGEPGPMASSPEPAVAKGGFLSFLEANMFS

[2] = target: T3, human CEA (Carcinoembryonic antigen, CEACAM5) on tumor cells (human, UniProt P06731 35-685, The C-terminal Ala685 carries the GPI anchor. The protein is heavily N-glycosylated.); test: cell-based or functional assay
T3 sequence: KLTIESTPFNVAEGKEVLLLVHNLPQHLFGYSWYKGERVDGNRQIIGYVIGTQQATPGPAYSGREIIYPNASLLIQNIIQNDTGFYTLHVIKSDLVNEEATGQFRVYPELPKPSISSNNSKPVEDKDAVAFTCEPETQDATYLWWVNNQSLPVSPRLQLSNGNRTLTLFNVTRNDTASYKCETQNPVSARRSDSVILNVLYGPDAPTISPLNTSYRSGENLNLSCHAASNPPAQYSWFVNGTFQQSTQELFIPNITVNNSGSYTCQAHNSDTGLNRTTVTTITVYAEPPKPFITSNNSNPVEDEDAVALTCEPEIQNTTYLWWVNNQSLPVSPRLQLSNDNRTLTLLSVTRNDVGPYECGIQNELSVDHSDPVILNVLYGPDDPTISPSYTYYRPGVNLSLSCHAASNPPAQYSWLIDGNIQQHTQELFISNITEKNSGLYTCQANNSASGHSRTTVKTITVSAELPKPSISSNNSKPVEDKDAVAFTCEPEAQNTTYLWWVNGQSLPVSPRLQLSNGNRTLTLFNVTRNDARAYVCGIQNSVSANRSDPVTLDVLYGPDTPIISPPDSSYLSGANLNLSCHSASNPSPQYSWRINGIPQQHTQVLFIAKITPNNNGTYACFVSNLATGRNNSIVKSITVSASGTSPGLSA

[3] = target: T4, human CD3 on Jurkat cells (Homo sapiens, UniProt P07766); test: flow cytometry on Jurkat cells (human CD3), FITC-conjugated anti-human IgG F(ab')2 secondary antibody, median fluorescence intensity
T4 construct: native, on the surface of the Jurkat human T cell line; also called CD3+ cells (Jurkat)
T4 sequence (P07766 23-207): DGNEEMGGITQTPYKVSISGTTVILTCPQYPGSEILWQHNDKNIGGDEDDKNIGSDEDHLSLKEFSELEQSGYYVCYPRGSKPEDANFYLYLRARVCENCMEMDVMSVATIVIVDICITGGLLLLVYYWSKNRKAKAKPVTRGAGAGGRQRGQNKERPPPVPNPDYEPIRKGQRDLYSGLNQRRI
Method: (§1) An untargeted TCB (SEQ ID NOs: 59, 60, 61 and 62; see example 24) was used as control. Briefly, cells were harvested, counted, checked for viability and resuspended at 2×10⁶ cells/ml in FACS buffer (100 μl PBS 0.1% BSA).

[4] = target: T3, human CEA (Carcinoembryonic antigen, …); test: cell-based or functional assay; remark: listed apart in the source
[5] = target: T4, human CD3 on Jurkat cells; test: flow cytometry on Jurkat cells (CD3+), PE-conjugated anti-human IgG Fcγ secondary antibody, median fluorescence intensity
Method: (§2) Briefly, cells were harvested, counted, checked for viability and resuspended at 2×10⁶ cells/ml in FACS buffer (100 μl PBS 0.1% BSA).

[6] = target: T5, human MCSP (Melanoma-associated Chondroitin Sulfate Proteoglycan) on tumor cells (human, UniProt Q6UVK1 30-2322); test: flow cytometry on A375 cells (MCSP+), PE-conjugated anti-human IgG Fcγ secondary antibody, median fluorescence intensity
T5 construct: whole, on cells; Cell surface antigen on human tumor cell lines A375 (high), MV-3 (medium), HCT-116 (low); also called CSPG4
T5 sequence (Q6UVK1 30-2322): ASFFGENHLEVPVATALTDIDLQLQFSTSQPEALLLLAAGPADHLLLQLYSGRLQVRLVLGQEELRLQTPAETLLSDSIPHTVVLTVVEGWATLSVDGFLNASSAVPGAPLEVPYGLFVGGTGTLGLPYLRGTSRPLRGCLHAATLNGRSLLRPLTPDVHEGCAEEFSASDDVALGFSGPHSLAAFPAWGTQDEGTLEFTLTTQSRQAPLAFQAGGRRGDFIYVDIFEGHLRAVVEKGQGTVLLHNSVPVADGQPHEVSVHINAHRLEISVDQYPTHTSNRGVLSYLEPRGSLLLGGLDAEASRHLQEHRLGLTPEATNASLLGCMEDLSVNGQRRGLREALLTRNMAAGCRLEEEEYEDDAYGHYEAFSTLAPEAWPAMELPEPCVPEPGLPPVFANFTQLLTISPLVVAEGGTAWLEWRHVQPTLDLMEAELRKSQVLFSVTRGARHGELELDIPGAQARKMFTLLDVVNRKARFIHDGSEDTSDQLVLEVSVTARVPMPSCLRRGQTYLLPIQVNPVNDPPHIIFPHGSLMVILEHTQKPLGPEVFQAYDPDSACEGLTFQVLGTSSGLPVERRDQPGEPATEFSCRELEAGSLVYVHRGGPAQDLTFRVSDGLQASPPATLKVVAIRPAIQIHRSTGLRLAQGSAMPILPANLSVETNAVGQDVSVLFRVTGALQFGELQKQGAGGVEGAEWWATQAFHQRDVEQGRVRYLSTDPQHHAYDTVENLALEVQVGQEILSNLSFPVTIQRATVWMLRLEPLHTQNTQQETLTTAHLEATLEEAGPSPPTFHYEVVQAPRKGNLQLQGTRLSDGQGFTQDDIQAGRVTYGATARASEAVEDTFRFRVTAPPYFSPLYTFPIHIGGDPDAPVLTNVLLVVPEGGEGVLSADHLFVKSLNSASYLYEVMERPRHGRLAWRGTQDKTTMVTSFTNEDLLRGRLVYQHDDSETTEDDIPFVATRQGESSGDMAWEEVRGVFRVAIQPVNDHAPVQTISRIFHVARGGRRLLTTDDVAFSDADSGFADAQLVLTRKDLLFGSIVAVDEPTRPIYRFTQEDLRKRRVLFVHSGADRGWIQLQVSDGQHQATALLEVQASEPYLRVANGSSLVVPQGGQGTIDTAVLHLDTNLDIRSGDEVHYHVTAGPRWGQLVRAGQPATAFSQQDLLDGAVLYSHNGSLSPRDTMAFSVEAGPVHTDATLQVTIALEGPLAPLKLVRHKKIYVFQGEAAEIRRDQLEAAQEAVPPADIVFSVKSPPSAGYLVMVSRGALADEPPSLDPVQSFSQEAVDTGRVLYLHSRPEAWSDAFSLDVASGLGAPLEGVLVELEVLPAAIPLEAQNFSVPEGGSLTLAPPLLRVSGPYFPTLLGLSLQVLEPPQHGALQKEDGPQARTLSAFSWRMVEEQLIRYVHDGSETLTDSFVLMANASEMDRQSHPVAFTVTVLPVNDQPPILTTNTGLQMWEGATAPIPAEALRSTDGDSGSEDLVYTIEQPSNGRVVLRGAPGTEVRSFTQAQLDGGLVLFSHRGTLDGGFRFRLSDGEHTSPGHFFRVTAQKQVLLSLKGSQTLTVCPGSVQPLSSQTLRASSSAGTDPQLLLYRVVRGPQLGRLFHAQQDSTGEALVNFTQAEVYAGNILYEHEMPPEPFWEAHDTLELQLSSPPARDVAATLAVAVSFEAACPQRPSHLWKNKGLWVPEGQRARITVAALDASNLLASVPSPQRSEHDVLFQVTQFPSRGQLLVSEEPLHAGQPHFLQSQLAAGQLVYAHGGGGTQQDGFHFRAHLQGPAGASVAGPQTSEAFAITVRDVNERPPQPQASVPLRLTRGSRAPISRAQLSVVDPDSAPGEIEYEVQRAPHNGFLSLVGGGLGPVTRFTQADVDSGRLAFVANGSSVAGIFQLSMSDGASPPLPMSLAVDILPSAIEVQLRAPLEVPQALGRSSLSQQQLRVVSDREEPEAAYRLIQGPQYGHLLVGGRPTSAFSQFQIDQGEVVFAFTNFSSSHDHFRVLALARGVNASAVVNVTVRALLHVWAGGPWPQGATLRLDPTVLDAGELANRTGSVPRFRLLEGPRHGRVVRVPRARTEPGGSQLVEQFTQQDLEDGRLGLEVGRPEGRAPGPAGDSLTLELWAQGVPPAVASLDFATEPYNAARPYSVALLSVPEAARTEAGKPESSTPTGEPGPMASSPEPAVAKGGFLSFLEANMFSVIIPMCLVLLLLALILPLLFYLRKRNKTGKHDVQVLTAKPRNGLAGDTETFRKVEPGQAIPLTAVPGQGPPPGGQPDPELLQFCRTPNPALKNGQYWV
Method: as §2

[7] = target: T3, human CEA (Carcinoembryonic antigen, …); test: flow cytometry on A549-huCEA cells, FITC-conjugated anti-human IgG F(ab')2 secondary antibody, median fluorescence intensity
Method: as §1

B1: M4-3(C1)/ML2(G3) IgG (antibody, V domains shown)
VH: QVQLQESGPGLVKPSQTLSLTCTVSGGSITSGYYWNWIRQHPGKGLEWIGYITFDGSNNYNPSLKSRVTISRDTSKNQFSLKLSSVTAADTAVYYCADFDYWGQGTLVTVSS
VL: DIQMTQSPSSLSASVGDRVTITCRASQGIRNYLNWYQQKPGKAPKLLIYYTSSLHSGVPSRFSGSGSGTDYTLTISSLQPEDFATYYCQQYSALPWTFGQGTKVEIKR
notes: Human IgG1 format, produced in HEK293-EBNA
With B1 the “Fold increase over parent (IgG KD)” value (cynomolgus MCSP D3) was 10 fold and the “Fold increase over parent (IgG KD)” value [1] was 28.6 fold.

B2: CEA TCB (2+1 Crossfab-IgG P329G LALA inverted) (bispecific antibody)
chain 1: DIQMTQSPSSLSASVGDRVTITCKASAAVGTYVAWYQQKPGKAPKLLIYSASYRKRGVPSRFSGSGSGTDFTLTISSLQPEDFATYYCHQYYTYPLFTFGQGTKLEIKRTVAAPSVFIFPPSDEQLKSGTASVVCLLNNFYPREAKVQWKVDNALQSGNSQESVTEQDSKDSTYSLSSTLTLSKADYEKHKVYACEVTHQGLSSPVTKSFNRGEC
chain 2: QAVVTQEPSLTVSPGGTVTLTCGSSTGAVTTSNYANWVQEKPGQAFRGLIGGTNKRAPGTPARFSGSLLGGKAALTLSGAQPEDEAEYYCALWYSNLWVFGGGTKLTVLSSASTKGPSVFPLAPSSKSTSGGTAALGCLVKDYFPEPVTVSWNSGALTSGVHTFPAVLQSSGLYSLSSVVTVPSSSLGTQTYICNVNHKPSNTKVDKKVEPKSC
chain 3: not shown
chain 4: QVQLVQSGAEVKKPGASVKVSCKASGYTFTEFGMNWVRQAPGQGLEWMGWINTKTGEATYVEEFKGRVTFTTDTSTSTAYMELRSLRSDDTAVYYCARWDFAYYVEAMDYWGQGTTVTVSSASTKGPSVFPLAPSSKSTSGGTAALGCLVKDYFPEPVTVSWNSGALTSGVHTFPAVLQSSGLYSLSSVVTVPSSSLGTQTYICNVNHKPSNTKVDKKVEPKSCDKTHTCPPCPAPEAAGGPSVFLFPPKPKDTLMISRTPEVTCVVVDVSHEDPEVKFNWYVDGVEVHNAKTKPREEQYNSTYRVVSVLTVLHQDWLNGKEYKCKVSNKALGAPIEKTISKAKGQPREPQVCTLPPSRDELTKNQVSLSCAVKGFYPSDIAVEWESNGQPENNYKTTPPVLDSDGSFFLVSKLTVDKSRWQQGNVFSCSVMHEALHNHYTQKSLSLSPGK
notes: Two anti-CEA Fabs CH1A1A 98/99 2F1, one anti-CD3 crossfab (humanized CH2527), Fc knob-into-hole with P329G LALA; the conventional light chain occurs twice (vector ratio 1:2:1:1); also called CEA TCB antibody
B2 was tested, and the “EC50 [pM] 48 h for T-cell mediated killing of ASPC1 cells (LDH release, human PBMCs, E:T 10:1)” value [2] was 846 pM, the “EC50 [pM] 48 h for T-cell mediated killing of BxPC-3 cells (LDH release, human PBMCs, E:T 10:1)” value [2] was 3780 pM and the “EC50 [pM] 48 h for T-cell mediated killing of HPAFII cells (LDH release, human PBMCs, E:T 10:1)” value [2] was 667 pM. For the same binder, the binding result [3] was “binds”, the “EC50 of killing of A549-hCEA cells at 40 h, cynomolgus PBMCs as effector cells” value [4] was 0.102 nM and the “EC50 of killing of A549-hCEA cells at 40 h, human PBMCs as effector cells” value [4] was 0.306 nM.

B3: MCSP TCB (2+1 Crossfab-IgG P329G LALA inverted) (bispecific antibody)
chain 1: not shown
chain 2: QAVVTQEPSLTVSPGGTVTLTCGSSTGAVTTSNYANWVQEKPGQAFRGLIGGTNKRAPGTPARFSGSLLGGKAALTLSGAQPEDEAEYYCALWYSNLWVFGGGTKLTVLSSASTKGPSVFPLAPSSKSTSGGTAALGCLVKDYFPEPVTVSWNSGALTSGVHTFPAVLQSSGLYSLSSVVTVPSSSLGTQTYICNVNHKPSNTKVDKKVEPKSC
chain 3: not shown
chain 4: QVQLQESGPGLVKPSQTLSLTCTVSGGSITSGYYWNWIRQHPGKGLEWIGYITFDGSNNYNPSLKSRVTISRDTSKNQFSLKLSSVTAADTAVYYCADFDYWGQGTLVTVSSASTKGPSVFPLAPSSKSTSGGTAALGCLVKDYFPEPVTVSWNSGALTSGVHTFPAVLQSSGLYSLSSVVTVPSSSLGTQTYICNVNHKPSNTKVDKKVEPKSCDKTHTCPPCPAPEAAGGPSVFLFPPKPKDTLMISRTPEVTCVVVDVSHEDPEVKFNWYVDGVEVHNAKTKPREEQYNSTYRVVSVLTVLHQDWLNGKEYKCKVSNKALGAPIEKTISKAKGQPREPQVCTLPPSRDELTKNQVSLSCAVKGFYPSDIAVEWESNGQPENNYKTTPPVLDSDGSFFLVSKLTVDKSRWQQGNVFSCSVMHEALHNHYTQKSLSLSPGK
notes: Two anti-MCSP Fabs M4-3(C1) ML2(G3), one anti-CD3 crossfab (humanized CH2527), Fc knob-into-hole with P329G LALA; the conventional light chain occurs twice (vector ratio 1:2:1:1); also called MCSP TCB antibody; MCSP CD3 bispecific antibody
B3: binds [5].

B4: untargeted TCB (bispecific antibody)
polypeptide chain; the text does not say which chain this SEQ ID NO is 1: not shown
polypeptide chain; the text does not say which chain this SEQ ID NO is 2: QAVVTQEPSLTVSPGGTVTLTCGSSTGAVTTSNYANWVQEKPGQAFRGLIGGTNKRAPGTPARFSGSLLGGKAALTLSGAQPEDEAEYYCALWYSNLWVFGGGTKLTVLSSASTKGPSVFPLAPSSKSTSGGTAALGCLVKDYFPEPVTVSWNSGALTSGVHTFPAVLQSSGLYSLSSVVTVPSSSLGTQTYICNVNHKPSNTKVDKKVEPKSC
polypeptide chain; the text does not say which chain this SEQ ID NO is 3: not shown
polypeptide chain; the text does not say which chain this SEQ ID NO is 4: not shown
notes: Control bispecific antibody that engages CD3 through humanized CH2527 but no second antigen; also called DP47GS TCB; DP47 GS TCB
B4: no binding (tested: about log 5.3 [pM] (about 200 nM)) [6]; binds [5]; no binding (tested: log 6 [pM] (1000 nM)) [7].
